Publication PMC3951440, “Assessing Specific Oligonucleotides and Small Molecule Antibiotics for the Ability to Inhibit the CRD-BP-CD44 RNA Interaction” (PLoS ONE, 2014)

How the values were obtained:
CRD-BP (IMP1) (mouse) [1] = biological target: CRD-BP (IMP1) (mouse) (UniProt O88477); assay: EMSA; settings: EMSA: 5 mM Tris-Cl pH 7.4, 2.5 mM EDTA, 2 mM DTT, 5% glycerol, 0.1 mg/ml BSA, 0.5 mg/ml yeast tRNA, 5 U RNasin; 30 C with ice steps; 40 nM RNA probe
CRD-BP (IMP1) (mouse) [2] = biological target: CRD-BP (IMP1) (mouse) (UniProt O88477); assay: competition; settings: EMSA: 5 mM Tris-Cl pH 7.4, 2.5 mM EDTA, 2 mM DTT, 5% glycerol, 0.1 mg/ml BSA, 0.5 mg/ml yeast tRNA, 5 U RNasin; 30 C with ice steps; 40 nM RNA probe

CRD-BP (IMP1) (mouse), sequence (O88477 whole entry): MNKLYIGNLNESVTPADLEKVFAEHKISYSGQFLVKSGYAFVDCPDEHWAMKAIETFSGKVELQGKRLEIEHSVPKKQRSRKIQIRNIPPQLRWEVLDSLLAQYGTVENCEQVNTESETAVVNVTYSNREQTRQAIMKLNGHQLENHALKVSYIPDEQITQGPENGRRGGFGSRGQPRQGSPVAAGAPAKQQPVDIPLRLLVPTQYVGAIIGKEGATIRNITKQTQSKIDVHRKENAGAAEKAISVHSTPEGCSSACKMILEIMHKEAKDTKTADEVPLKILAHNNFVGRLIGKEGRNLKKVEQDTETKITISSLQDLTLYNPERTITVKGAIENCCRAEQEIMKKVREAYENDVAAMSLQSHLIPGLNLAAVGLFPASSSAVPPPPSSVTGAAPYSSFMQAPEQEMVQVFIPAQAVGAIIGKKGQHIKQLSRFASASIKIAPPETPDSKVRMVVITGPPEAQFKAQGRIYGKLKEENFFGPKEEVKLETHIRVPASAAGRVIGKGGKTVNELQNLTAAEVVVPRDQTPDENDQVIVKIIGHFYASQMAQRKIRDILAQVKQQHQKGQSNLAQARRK

GGAAAUUAGGGCCCAAUUAAUAAUCAGCAAGAAUUUGAUCGUUCCAGUUCCCACUUGGAGGCCUUUCAUCCCUCGGGUGUGCUAUGGAUGGCUUCUAACAAAAACUACACAUAUGUAUUCCUGAUCGCCAACCUUUCCCCCACCAGCUAA [P5 RNA]
binding signal (CRD-BP (IMP1) (mouse) [1]): 15 % bound

GGAAAUUAGGGCCCAAUUAAUAAUCAGCAAGAAUUUGAUCGUUCCAGUUCCCACUUGGAGGCCUUUCAUCCCUCGGGUGUGCUAUGGAUGGCUUCUAACAAAAACUACACAUAUGUAUUCCUGAUCGCCAACCUUUCCCCCACCAGCUAAGGACAUUUCCCAGGGUUAAUAGGGCCUGGU [P6 RNA]
binding (CRD-BP (IMP1) (mouse) [1]): binds

GGAAAUUAGGGCCCAAUUAAUAAUCAGCAAGAAUUUGAUCGUUCCAGUUCCCACUUGGAGGC [P2 RNA]
binding signal (CRD-BP (IMP1) (mouse) [1]): 5 % bound

GGAAAUUAGGGCCCAAUUAAUAAUCAGCAAGAAUUUGAUCGUUCCAGUUCCCACUUGGAGGCCUUUCAUCCCUCGGGUGUGCUAUGGAUGGCUUCUAACAAAAACUACACAUAUGUAUUCCU [P4 RNA]
binding (CRD-BP (IMP1) (mouse) [1]): no binding

GGAAAUUAGGGCCCAAUUAAUAAUCAGCAAGAAUUUGAUCGUUCCAGUUCCCACUUGGAGGCCUUUCAUCCCUCGGGUGUGCUAUGGAUGGCUUCUAACAAAAACUACACAUAUGUAUUCCUGAUCGCCAACCUUUCCCCCACCAGCUAAGGACAUUUCCCAGGGUUAAUAGGGCCUGGUCCCUGGGAGGAAAUUU [CD44 Fragment 4 RNA]
binding (CRD-BP (IMP1) (mouse) [2]): binds | Kd (CRD-BP (IMP1) (mouse) [1]): 645 nM
